What was measured:
human full length CDH17 = target: T1, human full length CDH17 (Homo sapiens, UniProt Q12864); assay: Flow cytometry of VHH1 phage on HEK293T cells transfected with human CDH17; format: binding; details: screen of ~3000 cell surface proteins
T1 construct: expressed in transfected cells; host or cells: HEK293T
T1 sequence (Q12864 23-832): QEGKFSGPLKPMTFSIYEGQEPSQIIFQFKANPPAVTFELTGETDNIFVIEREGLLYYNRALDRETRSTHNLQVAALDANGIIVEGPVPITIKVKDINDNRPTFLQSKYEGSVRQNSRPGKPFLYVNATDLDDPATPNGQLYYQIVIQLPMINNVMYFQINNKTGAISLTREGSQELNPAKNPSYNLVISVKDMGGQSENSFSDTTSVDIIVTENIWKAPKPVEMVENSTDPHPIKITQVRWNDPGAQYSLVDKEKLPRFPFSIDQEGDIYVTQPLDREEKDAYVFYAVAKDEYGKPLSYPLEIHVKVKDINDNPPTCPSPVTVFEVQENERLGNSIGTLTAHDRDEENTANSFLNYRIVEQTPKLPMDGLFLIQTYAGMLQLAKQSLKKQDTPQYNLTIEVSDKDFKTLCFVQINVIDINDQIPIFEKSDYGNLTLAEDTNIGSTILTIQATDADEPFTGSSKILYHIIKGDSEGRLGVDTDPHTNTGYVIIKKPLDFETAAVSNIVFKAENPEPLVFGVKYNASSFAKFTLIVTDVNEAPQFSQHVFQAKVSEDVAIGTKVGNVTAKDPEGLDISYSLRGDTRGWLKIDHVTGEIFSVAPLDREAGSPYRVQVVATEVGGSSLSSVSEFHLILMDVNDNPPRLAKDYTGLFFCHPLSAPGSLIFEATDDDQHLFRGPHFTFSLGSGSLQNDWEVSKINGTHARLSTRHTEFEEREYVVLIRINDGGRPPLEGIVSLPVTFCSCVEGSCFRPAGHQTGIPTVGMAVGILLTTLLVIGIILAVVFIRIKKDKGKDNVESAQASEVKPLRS
Source text: (§1) FIGS. 12A-12D are a series of graphs and images depicting isolation of VHH1 from a llama-derived […] antibody phage display naive library by panning to BON cells, as described in FIG. 1A. VHH1 was isolated from phage library and specifically bound human neuroendocrine tumor (NET) BON cells in vitro, but not other tumor cells such as breast cancer cells or leukemia cells, by positive or negative pannings, as illustrated in FIG. 1. […] FIG. 12B depicts the antigen of VHH1 is CDH17 (through DNA sequencing individual phage clones that specifically bound BON cells), as identified by screening the transfected cells. Flow analysis of VHH1 binding to CDH17 overexpressed in 293 cells is shown.
(§2) Next, to identify the protein antigen of the isolated VHH1 nanobody, ˜3000 human cell membrane protein cDNAs were prepared and transfected into HEK293T cells individually, followed by flow cytometry analysis with the VHH1-expressing phage and FITC-labeled secondary antibody against phage M13 protein (FIG. 12A). […] Human or mouse CDH17 cDNA was transiently transfected into HEK293T cells, followed by flow cytometry analysis with the VHH1-expressing phage and FITC-labeled secondary antibody against phage M13 protein.

[1] = test system: human pancreatic neuroendocrine tumor (PNET) samples; assay: Flow cytometry binding of VHH1 to human PNET biopsy samples; details: four fresh samples via biopsy from liver
BT474 cells = assay: Flow cytometry binding of VHH1 to BT474 cells; set-up: species or system human
NT-3 cells = assay: Flow analysis of VHH1 binding to NT-3 cells; set-up: species or system human
BON cells [2] = assay: Flow cytometry binding of VHH1 to BON cells; set-up: species or system human
mouse CDH17 = target: T2, mouse CDH17 (Mus musculus, UniProt Q9R100); assay: Flow cytometry of VHH1 phage on HEK293T cells transfected with mouse CDH17; format: binding; details: transiently transfected HEK293T
T2 construct: expressed in transfected cells; host or cells: HEK293T
T2 sequence (Q9R100 26-827): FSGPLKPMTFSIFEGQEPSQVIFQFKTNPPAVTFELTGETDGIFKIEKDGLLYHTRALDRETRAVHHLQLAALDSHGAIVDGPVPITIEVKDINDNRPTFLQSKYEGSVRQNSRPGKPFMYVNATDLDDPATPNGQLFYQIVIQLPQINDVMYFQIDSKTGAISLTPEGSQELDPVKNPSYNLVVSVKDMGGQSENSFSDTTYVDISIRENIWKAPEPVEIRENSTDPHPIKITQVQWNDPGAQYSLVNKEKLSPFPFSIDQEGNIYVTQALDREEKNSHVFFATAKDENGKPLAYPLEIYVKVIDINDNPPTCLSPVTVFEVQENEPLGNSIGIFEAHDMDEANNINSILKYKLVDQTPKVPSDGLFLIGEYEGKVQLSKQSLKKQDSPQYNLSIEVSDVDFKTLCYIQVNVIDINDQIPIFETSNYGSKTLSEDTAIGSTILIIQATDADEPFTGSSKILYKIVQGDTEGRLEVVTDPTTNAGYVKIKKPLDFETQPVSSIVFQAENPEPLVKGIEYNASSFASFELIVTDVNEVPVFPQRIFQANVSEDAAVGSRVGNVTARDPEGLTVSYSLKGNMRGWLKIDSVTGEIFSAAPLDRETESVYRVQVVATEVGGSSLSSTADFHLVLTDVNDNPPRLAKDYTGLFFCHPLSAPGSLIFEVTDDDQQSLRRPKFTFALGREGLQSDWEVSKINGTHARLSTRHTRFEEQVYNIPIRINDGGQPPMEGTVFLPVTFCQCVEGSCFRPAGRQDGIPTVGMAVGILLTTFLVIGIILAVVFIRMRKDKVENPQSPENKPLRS
Source text: as §1, §2

EC1 domain of CDH17 [3] = target: T3, EC1 domain of CDH17 (Homo sapiens, UniProt Q12864); assay: Flow analysis of VHH1 on CDH17 truncations in HEK293T cells; format: binding
T3 construct: expressed in transfected cells; host or cells: HEK293T
T3 sequence (Q12864 23-832): T1 sequence (Q12864 23-832)
Source text: (§3) FIGS. 22A-22C are series of images and graphs depicting that the VHH1 binds to the EC1 domain of CDH17. FIG. 22A is a schema showing human CDH17 truncations. […] FIG. 22C is a schematic diagram of CDH17 structure showing VHH1 binds to the N-terminal EC1 domain of CDH17.
(§4) In order to further confirm the antigen of VHH1 is CDH17, several CDH17 internal truncations were constructed. The truncations were transfected into HEK293T cells. […] Additionally, several CDH17 internal truncations were constructed (FIG. 22A) and transfected into HEK293T cells. Flow cytometry analysis was performed with the purified VHH1 nanobody and APC labeled anti-HA secondary antibody against HA on VHH1 nanobody. […] CDH17, a cell adhesion protein highly expressed in human NETs. CDH17 is a cell adhesion protein highly expressed in human NETs. […] One nanobody, named VHH1 was identified that specifically binds to CDH17 protein. […] VHH1 was sequenced and confirmed to contain the conserved VHH sequence (FIG. 14).

EC1 domain of CDH17 [4] = assay: as above; format: binding, human
Source text: as §3, §4

BON cells [5] = assay: In vitro killing of BON cells by ADC (MTT assay)
BON cells [6] = assay: Flow cytometry binding of VLV or VLV-DM1 to BON cells; set-up: species or system human
Method: (§5) Scale bar: […]. […] Scale bar: […].

[7] = test system: CDH17-negative QGP1 cells; assay: In vitro killing of QGP1 cells by ADC (MTT assay); format: cell-based; details: cytotoxicity assay
Method: as §5

QGP1 cells = assay: Flow cytometry binding of VLV or VLV-DM1 to QGP1 cells
Method: as §5

THP-1 tumors = assay: sCAR T plus Nb switch in THP-1 xenograft NSG mice; format: in vivo; details: with sCAR T cells
Source text: (§6) FIGS. 6A-6H are series of images and graphs depicting that Nb switch-activated CAR T cells eradicate AML in vivo in a controllable manner. FIGS. 6A-6B: Schematic diagram of switchable CAR T system. The Nb157 was expressed and purified by fusing with PNE, a fourteen amino acid peptide, either at N terminal or C terminal of the Nanobody. Primary human T cells were engineered by lentivirus transduction of scFv CAR that recognized PNE specifically. FIG. 6C: Test the affinity of Nb157, Nb157-N-PNE or Nb157-C-PNE against THP-1 cells by flow cytometry analysis. FIG. 6D: Killing assay of Nb157-PNE-mediated sCAR system against THP-1 cells in series of switch concentrations. The ratio of sCAR T to THP-1 was 2:1 and assay was performed after 16 hours incubation. FIG. 6E: 10 million THP-1 cells were transplanted into NSG mice subcutaneously to form the 150 mm^3 of tumors. […] The engraftment volumes were monitored by measuring the lengths and widths of the tumors. […] The primary leukemia or CAR T cells in the mouse peripheral blood were monitored by staining with CD33 or CD3 fluorescence labeled antibodies.
To determine whether the inducible switch, in concert with the sCAR T cells, can kill tumor in mice, THP-1 cells were transplanted into NSG mice subcutaneously to form tumors. […] It was determined whether resumption of the Nb157 switch injection suppress the tumor growth again. […]

[8] = test system: patient-derived AML cells; assay: sCAR T plus Nb switch in patient-derived AML NSG mice; format: in vivo; details: sCAR T cells plus switch compared to sCAR T cell alone
Source text: as §6, with “concentrations.” for “concentrations. The ratio of sCAR T to THP-1 was 2:1 and assay was performed after 16 hours incubation. FIG. 6E: 10 million THP-1 cells were transplanted into NSG mice subcutaneously to form the 150 mm^3 of tumors.”
It was explored whether the switch CAR system can also suppress primary AML cells in mice. To this end, patient-derived AML cells were injected into the NSG mice to build leukemic mice model as determined by detection of the human CD33+ AML cells in the peripheral blood of the recipient mice (FIG. 6G). […] The appearance of CD33+ AML cells or CD3+ T cells in peripheral blood were monitored by flow cytometry analysis weekly.

THP-1 cells = assay: Killing assay of Nb157-PNE-mediated sCAR system; format: cell-based, human; details: sCAR T to THP-1 2:1, 16 hours
Source text: as §6
Killing assays were performed as previously described (Cao, L. F. et al. (2010) Cytometry A 77, 534-545). […] Quantification were calculated by either Countbright beads or volume.

B1: VHH1: llama nanobody binding the EC1 domain of CDH17, SEQ ID NO: 2 (protein)
VHH: QVQLQESGGGLVQPGGSTRLSCVSSRTFSYYDMGWFRQAPGKEREFVALLSWNGENAEYSDSVMGRFTVSRGNTQNSVNLQMNNLKPEDTGIYYCAVTHGGARSVRSWGQGTQVTVSS
modifications: VHH1 nanobody
- binding to human CDH17 (human full length CDH17): only bound to human full length CDH17
- binding to human PNET samples [1]: robustly bound by VHH1
- binding to BT474 cells (BT474 cells): cannot be bound by VHH1
- binding to NT-3 cells (NT-3 cells): robustly bound by VHH1
- binding to BON cells (BON cells [2]): can be bound by VHH1
- binding to mouse CDH17 (mouse CDH17): bound both human and mouse CDH17
- binding domain on CDH17 (EC1 domain of CDH17 [3]): binds to the EC1 domain at the N-terminal part of CDH17
- binding to EC1 domain deleted truncation Del-1 (EC1 domain of CDH17 [4]): completely lost the function to interact with VHH1 nanobody

B2: VLV-DM1 (conjugate)
VHH 1: B1 VHH
VHH 2: B1 VHH
modifications: left off: things letters cannot carry; small tags and cut ends
- lysis of BON cells (morphology) (BON cells [5]; at 4 nM, microscopic observation): lysed the BON cells
- killing of BON cells (BON cells [5]; cytotoxicity assay): significantly killed BON cells
- binding to BON cells (BON cells [6]): bound to BON cells, albeit with slightly reduced affinity
- killing of QGP1 cells [7]: but not CDH17-negative QGP1 cells
- binding to QGP1 cells (QGP1 cells): but not QGP1 cells

B3: Nb157-C-PNE: Nb157 with C-terminal PNE, a fourteen amino acid peptide; inducible nanobody switch (protein)
chain: AAQAAQVQLQESGGGLVQPGGSLSLSCTASGFTFSSYSMAWVRQAPGKGPEWVSGIYPSDGKTRYADFVKGRFSISRDNAKNMLYLQMNNLEPEDTALYYCARGITGLGPRGQGTQVTVSSAA
modifications: left off: small tags and cut ends
notes: Nb157 with C-terminal PNE, a fourteen amino acid peptide; inducible nanobody switch
- tumor growth, THP-1 xenograft (THP-1 tumors; first five times of switch injection): significantly slowed down growth
- tumor size (THP-1 tumors; switch restarted from day 21, day 52): almost undetectable
- survival (Kaplan Maier) [8]: significantly protected the leukemic mice from dying
- switch-triggered killing of THP-1 cells by sCAR T cells (THP-1 cells): potently triggered the killing of THP-1 cells by the sCAR T cells

— patent US12410234B2, “Compositions and methods for retrieving tumor-related antibodies and antigens” (THE TRUSTEES OF THE UNIVERSITY OF PENNSYLVANIA, priority 2018, dated 2025)
